Laboratory results published in article PMC12657763, “SH2-mediated steric occlusion of the C2 domain regulates autoinhibition of SHIP1 inositol 5-phosphatase” (The Journal of Biological Chemistry, 2025).
Blank lines part the entries; values can stand above or below the molecule they belong to. Where no end group is shown, it is not given here. [ ]: non-standard residue; d: D form. pY = N[C@@H](Cc1ccc(OP(=O)(O)O)cc1)C(=O)O

B1: mNG-SHIP1(FL) (enzyme, human, UniProt Q92835-2 1-1188, looked up)
chain: MVPCWNHGNITRSKAEELLSRTGKDGSFLVRASESISRAYALCVLYRNCVYTYRILPNEDDKFTVQASEGVSMRFFTKLDQLIEFYKKENMGLVTHLQYPVPLEEEDTGDDPEEDTESVVSPPELPPRNIPLTASSCEAKEVPFSNENPRATETSRPSLSETLFQRLQSMDTSGLPEEHLKAIQDYLSTQLAQDSEFVKTGSSSLPHLKKLTTLLCKELYGEVIRTLPSLESLQRLFDQQLSPGLRPRPQVPGEANPINMVSKLSQLTSLLSSIEDKVKALLHEGPESPHRPSLIPPVTFEVKAESLGIPQKMQLKVDVESGKLIIKKSKDGSEDKFYSHKKILQLIKSQKFLNKLVILVETEKEKILRKEYVFADSKKREGFCQLLQQMKNKHSEQPEPDMITIFIGTWNMGNAPPPKKITSWFLSKGQGKTRDDSADYIPHDIYVIGTQEDPLSEKEWLEILKHSLQEITSVTFKTVAIHTLWNIRIVVLAKPEHENRISHICTDNVKTGIANTLGNKGAVGVSFMFNGTSLGFVNSHLTSGSEKKLRRNQNYMNILRFLALGDKKLSPFNITHRFTHLFWFGDLNYRVDLPTWEAETIIQKIKQQQYADLLSHDQLLTERREQKVFLHFEEEEITFAPTYRFERLTRDKYAYTKQKATGMKYNLPSWCDRVLWKSYPLVHVVCQSYGSTSDIMTSDHSPVFATFEAGVTSQFVSKNGPGTVDSQGQIEFLRCYATLKTKSQTKFYLEFHSSCLESFVKSQEGENEEGSEGELVVKFGETLPKLKPIISDPEYLLDQHILISIKSSDSDESYGEGCIALRLEATETQLPIYTPLTHHGELTGHFQGEIKLQTSQGKTREKLYDFVKTERDESSGPKTLKSLTSHDPMKQWEVTSRAPPCSGSSITEIINPNYMGVGPFGPPMPLHVKQTLSPDQQPTAWSYDQPPKDSPLGPCRGESPPTPPGQPPISPKKFLPSTANRGLPPRTQESRPSDLGKNAGDTLPQEDLPLTKPEMFENPLYGSLSSFPKPAPRKDQESPKMPRKEPPPCPEPGILSPSIVLTKAQEADRGEGPGKQVPAPRLRSFTCSSSAEGRAAGGDKSQGKPKTPVSSQAPVPAKRPIKPSRSEINQQTPPTPTPRPPLPVKSPAVLHLQHSKGRDYRDNTELPHHGKHRPEEGPPGPLGRTAMQ

Key:
mNG-SHIP1(ΔCTD) (human) [1] = assay: single-molecule photobleaching (TIRF-M); mNG-tagged SHIP1 bound to supported lipid bilayers with conjugated pY peptides (2% PI(3,4,5)P3, 2% MCC-PE, 96% DOPC); steps of photobleaching counted
[2] = molecular target: pY-ITIM peptide …(pY)SLIK, conjugated to the supported membrane; assay: single-molecule TIRF-M dwell time on supported lipid bilayers; pY-ITIM peptide conjugated to the membrane (2% PI(3,4,5)P3, 2% MCC-PE, 96% DOPC); 20–50 pM mNG-SHIP1 in solution; 23 °C; single or double exponential fit of dwell times
mNG-SHIP1(ΔCTD) (human) [3] = assay: single-molecule brightness distribution (TIRF-M); mNG-SHIP1 bound to pY peptides on supported lipid bilayers; 50 pM mNG-SHIP1(FL), 50 pM mNG-SHIP1(ΔCTD) or 20 pM mNG-mSHIP1(ΔCTD); particle brightness in the second frame of each trajectory
[4] = molecular target: the molecule itself; assay: single-molecule photobleaching (TIRF-M); mNG-tagged SHIP1 bound to supported lipid bilayers with conjugated pY peptides (2% PI(3,4,5)P3, 2% MCC-PE, 96% DOPC); steps of photobleaching counted
mNG-SHIP1(FL) = molecular target: B1; assay: TIRF-M membrane recruitment (bulk mNG fluorescence on supported lipid bilayers); pY-ITIM peptide conjugated to the membrane (2% PI(3,4,5)P3, 2% MCC-PE, 96% DOPC); 100 pM mNG-SHIP1 in solution; membrane density normalized to mNG-SHIP1(FL); details: both partners purified
[5] = molecular target: the molecule itself; assay: SEC; purified mNG-SHIP1(RBD) on a size-exclusion chromatography column, multiple protein concentrations

Molecule: B1
- stoichiometry N [4]: 2

B2: pY-ITIM peptide CKTEAENTIT(pY)SLIK, conjugated to the supported membrane (peptide)
peptide: C(MCC‑PE lipid)KTEAENTIT[pY]SLIK
notes: cysteine added to the N terminus for coupling to the maleimide lipid; also called membrane-conjugated pY-ITIM peptides; pY-conjugated peptide; source: synthetic peptide (Elim Biopharmaceuticals), covalently coupled to MCC-PE lipids of the supported membrane
- binding result (mNG-SHIP1(FL)): binds

B3: mNG-SHIP1(RBD) (domain or fragment, human, UniProt Q92835-2 151-290, looked up)
chain: ATETSRPSLSETLFQRLQSMDTSGLPEEHLKAIQDYLSTQLAQDSEFVKTGSSSLPHLKKLTTLLCKELYGEVIRTLPSLESLQRLFDQQLSPGLRPRPQVPGEANPINMVSKLSQLTSLLSSIEDKVKALLHEGPESPH
notes: the clone is UniProt Q92835 isoform 2, missing V117; A GGGGG linker stands between mNG and SHIP1; 42.7 kDa for the monomeric species; also called SHIP1(RBD) fused to an mNeonGreen (mNG); his10-mNG-GGGGG-SHIP1 (RBD, 151–290 amino acids); source: E. coli BL21 (DE3) Star, purified (HiTrap chelating column with CoCl2, TEV cleavage, Superdex 200); not shown: His10, N-terminal, cleaved; mNeonGreen, …
- stoichiometry N [5]: 2

More lines, now with the values ahead:

- stoichiometry N (mNG-SHIP1(ΔCTD) (human) [1]): 2
- membrane dwell time τ1 [2]: 0.359 s
- membrane dwell time τ1 (dimers only) [2]: 1.79 s
- membrane dwell time τ2 [2]: 1.83 s
- estimated fraction existing as dimers (corrected for mNG maturation) (mNG-SHIP1(ΔCTD) (human) [3]): 26%
- fraction of legitimate dimers with two mNG visible (mNG-SHIP1(ΔCTD) (human) [3]): 13%
Molecule: mNG-SHIP1(ΔCTD) (domain or fragment)

- membrane dwell time τ1 [2]: 0.409 s
Molecule: mNG-mSHIP1(ΔCTD) (domain or fragment)
